Target: DDX3X (UniProt O00571)
Assay: fluorescence polarization, protein titration
Settings: FP: 14.4 mM HEPES-KOH pH 8, 108 mM NaCl, 1 mM MgCl2, 14.4% glycerol, 0.1% DMSO, 2 mM DTT, 1 mM ATP, 10 nM probe, room temperature, 10 min

Sequence of DDX3X (O00571 132-607): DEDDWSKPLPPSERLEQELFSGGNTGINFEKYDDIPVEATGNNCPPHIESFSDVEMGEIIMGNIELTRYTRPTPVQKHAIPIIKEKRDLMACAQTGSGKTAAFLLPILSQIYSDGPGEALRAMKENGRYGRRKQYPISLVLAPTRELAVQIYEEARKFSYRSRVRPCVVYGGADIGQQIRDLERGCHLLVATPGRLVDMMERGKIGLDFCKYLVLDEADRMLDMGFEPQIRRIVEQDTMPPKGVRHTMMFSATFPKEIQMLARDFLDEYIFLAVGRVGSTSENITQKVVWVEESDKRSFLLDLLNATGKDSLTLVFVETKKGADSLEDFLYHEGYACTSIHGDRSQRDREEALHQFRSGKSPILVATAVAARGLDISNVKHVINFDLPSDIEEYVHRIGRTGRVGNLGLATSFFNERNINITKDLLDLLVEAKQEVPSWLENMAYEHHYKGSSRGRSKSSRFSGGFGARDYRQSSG

AGAGAGAGAGAGAGAG [FAM-r(AG)8]
K half: 2800 nM
